Measurements: patent US11278600B2, “Human alpha-galactosidase variants” (Codexis, Inc., priority 2014, dated 2022)
Substitutions are numbered along the chain they refer to.

B1: 277 (protein)
chain: LDNGLARTPTMGWLHWERFMCNLDCQEEPDSCISEKLFMEMAERMVSEGWKDAGYEYLCIDDCWMAPQRDSEGRLQADPQRFPHGIRQLANYVHSKGLKLGIYADVGNKTCAGFPGSFGYYDIDAQTFADWGVDLLKFDGCYCDSLENLADGYKHMSLALNRTGRSIVYSCEWPLYMWPFQKPNYTEIRQYCNHWRNFADIDDSWASIKSILDWTSRNQERIVDVAGPGGWNDPDMLVIGNFGLSWDQQVTQMALWAIMAAPLFMSNDLRHISPQAKALLQDKDVIAINQDPLGKQGYQLRQGDNFEVWERPLSGDAWAVAMINRQEIGGPRSYTIPVASLGKGVACNPACFITQLLPVKRKLGFYDWDSRLRSHINPTGTVLLQLENTMQMSLKDLL
modifications: Synthetic Polypeptide sequence of Variant No. 277 of mature Human GLA
B2: 278 (protein)
chain: B1 chain with P337A, A350G
modifications: Synthetic Polypeptide sequence of Variant No. 278 of mature Human GLA
B3: 280 (protein)
chain: B1 chain with D247N, Q302K, D316L, P337A
modifications: Synthetic Polypeptide sequence of Variant No. 280 of mature Human GLA
B4: 286 (protein)
chain: B1 chain with K96I, D316L, P337A, D367E, D369T
modifications: Synthetic Polypeptide sequence of Variant No. 286 of mature Human GLA
B5: 284 (protein)
chain: B1 chain with R217F, R221T, D316L, M322I, P337A, K343D, F365L, D367E, D369T, I376V
modifications: Synthetic Polypeptide sequence of Variant No. 284 of mature Human GLA
B6: 279 (protein)
chain: B1 chain with Q302K, D316L, P337A, A350G, D367E, D369T
modifications: Synthetic Polypeptide sequence of Variant No. 279 of mature Human GLA
B7: 282 (protein)
chain: B1 chain with R217F, D316L, D367E, D369T
modifications: Synthetic Polypeptide sequence of Variant No. 282 of mature Human GLA
B8: 288 (protein)
chain: B1 chain with K96I, Q302K, D316L, A350G
modifications: Synthetic Polypeptide sequence of Variant No. 288 of mature Human GLA
B9: 287 (protein)
chain: B1 chain with Q302K, D316L, A350G, D367E, D369T
modifications: Synthetic Polypeptide sequence of Variant No. 287 of mature Human GLA
B10: 285 (protein)
chain: B1 chain with K96I, R217F, D247N, D316L, P337A, D367E, D369T
modifications: Synthetic Polypeptide sequence of Variant No. 285 of mature Human GLA
B11: 283 (protein)
chain: B1 chain with R217F, Q302K, D316L, A350G
modifications: Synthetic Polypeptide sequence of Variant No. 283 of mature Human GLA
B12: 281 (protein)
chain: LDNGLARTPTMGWLHWERFMCNLDCQEEPDSCISEKLFMEMAERMVSEGWKDAGYEYLCIDDCWMAPQRDSEGRLQADPQRFPHGIRQLANYVHSKGLKLGIYADVGNKTCAGFPGSFGYYDIDAQTFADWGVDLLKFDGCYCDSLENLADGYKHMSLALNRTGRSIVYSCEWPLYMWPFQKPNYTEIRQYCNHWRNFADIDDSWASVKSILDWTSFNQEKIVDVAGPGGWNDPDMLVIGNFGLSWNQQVTQMALWAIMAAPLFMSNDLRHISPQAKALLQDKDVIAINQDPLGKQGYQLRQGDNFEVWERPLSGLAWAVAVINRQEIGGPRSYTIAVASLGDGVACNPACFITQLLPVKRKLGLYEWTSRLKSHINPTGTVLLQLENTMQMSLKDLL
modifications: Synthetic Polypeptide sequence of Variant No. 281 of mature Human GLA

Experiments:
Assay type in all cases: biochemical
[1] = HTP-analysis of yeast culture supernatants, no challenge (MUGal hydrolysis); details: activity of the variant/activity of Rd2BB (SEQ ID NO: 10), yeast culture supernatant
Procedure, shortened: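 GLA variants expressed in yeast INVSc1, secreted into SD-Ura broth over 66-84 h at 30° C; clarified supernatants tested without challenge. Supernatant mixed with McIlvaine buffer pH 4.8 and 2 mM MUGal (citrate/KCl, pH 4.6), 37° C for 30-180 min, carbonate-quenched, fluorescence Ex 355/Em 448 nm.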

[2] = HTP-analysis of supernatants pretreated with acid (MUGal hydrolysis); details: challenge at pH 4.2; activity of the variant/activity of Rd2BB (SEQ ID NO: 10); yeast culture supernatant
Procedure, shortened: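 Yeast INVSc1 supernatant, GLA variants; acid challenge: McIlvaine pH 3.3-4.3, 37° C., 1-3 h. Assay: MUGal in McIlvaine pH 4.8 plus citrate pH 4.3, 37° C., 30-180 min, Na2CO3 stop, Ex 355/Em 448 nm.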

[3] = HTP-analysis of supernatants pretreated with base (MUGal hydrolysis); details: challenge at pH 7.6; activity of the variant/activity of Rd2BB (SEQ ID NO: 10); yeast culture supernatant
Procedure, shortened: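 Fluorescence of released 4-MU (Ex 355 nm, Em 448 nm) after carbonate quench reports MUGal hydrolysis by GLA variants secreted from INVSc1 yeast. Before the acidic (pH 4.3-4.8) 30-180 min reaction at 37° C, supernatants had been pre-incubated at pH 7.0-9.7 for 1-18 h at 37° C.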

[4] = HTP-analysis of supernatants pretreated with bovine serum (MUGal hydrolysis); details: activity of the variant/activity of Rd2BB (SEQ ID NO: 10), yeast culture supernatant
Procedure, shortened: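 Yeast INVSc1 culture supernatants containing secreted GLA variants were mixed with bovine serum (20:80) and held 1 h at 37° C. Serum-treated samples then reacted with MUGal (4 mM stock) in citrate/McIlvaine buffer (pH 4.3/4.8) for 180 min at 37° C., were quenched with sodium carbonate, and read by fluorescence (Ex 355, Em 448 nm).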

Row | Molecule | Relative Activity of GLA Variants After No Challenge (NC) [1] | Relative Activity of GLA Variants After Challenge at pH 4.2 [2] | Relative Activity of GLA Variants After Challenge at pH 7.6 [3] | Relative Activity of GLA Variants After Challenge with Serum [4]
1 | B1 | +++ (+++ = >2.5 relative activity over Rd2BB (SEQ ID NO: 10)) | +++ (+++ = >2.5 relative activity over Rd2BB (SEQ ID NO: 10)) | +++ (+++ = >2.5 relative activity over Rd2BB (SEQ ID NO: 10)) | +++ (+++ = >2.5 relative activity over Rd2BB (SEQ ID NO: 10))
2 | B2 | +++ (+++ = >2.5 relative activity over Rd2BB (SEQ ID NO: 10)) | +++ (+++ = >2.5 relative activity over Rd2BB (SEQ ID NO: 10)) | +++ (+++ = >2.5 relative activity over Rd2BB (SEQ ID NO: 10)) | +++ (+++ = >2.5 relative activity over Rd2BB (SEQ ID NO: 10))
3 | B3 | + (+ = 0.5 to 1.5 relative activity over Rd2BB (SEQ ID NO: 10)) | + (+ = 0.5 to 1.5 relative activity over Rd2BB (SEQ ID NO: 10)) | + (+ = 0.5 to 1.5 relative activity over Rd2BB (SEQ ID NO: 10)) | + (+ = 0.5 to 1.5 relative activity over Rd2BB (SEQ ID NO: 10))
4 | B4 | + (+ = 0.5 to 1.5 relative activity over Rd2BB (SEQ ID NO: 10)) | + (+ = 0.5 to 1.5 relative activity over Rd2BB (SEQ ID NO: 10)) | ++ (++ = 1.5 to 2.5 relative activity over Rd2BB (SEQ ID NO: 10)) | + (+ = 0.5 to 1.5 relative activity over Rd2BB (SEQ ID NO: 10))
5 | B5 | +++ (+++ = >2.5 relative activity over Rd2BB (SEQ ID NO: 10)) | +++ (+++ = >2.5 relative activity over Rd2BB (SEQ ID NO: 10)) | +++ (+++ = >2.5 relative activity over Rd2BB (SEQ ID NO: 10)) | +++ (+++ = >2.5 relative activity over Rd2BB (SEQ ID NO: 10))
6 | B6 | ++ (++ = 1.5 to 2.5 relative activity over Rd2BB (SEQ ID NO: 10)) | +++ (+++ = >2.5 relative activity over Rd2BB (SEQ ID NO: 10)) | +++ (+++ = >2.5 relative activity over Rd2BB (SEQ ID NO: 10)) | +++ (+++ = >2.5 relative activity over Rd2BB (SEQ ID NO: 10))
7 | B7 | + (+ = 0.5 to 1.5 relative activity over Rd2BB (SEQ ID NO: 10)) | + (+ = 0.5 to 1.5 relative activity over Rd2BB (SEQ ID NO: 10)) | + (+ = 0.5 to 1.5 relative activity over Rd2BB (SEQ ID NO: 10)) | + (+ = 0.5 to 1.5 relative activity over Rd2BB (SEQ ID NO: 10))
8 | B8 | +++ (+++ = >2.5 relative activity over Rd2BB (SEQ ID NO: 10)) | +++ (+++ = >2.5 relative activity over Rd2BB (SEQ ID NO: 10)) | +++ (+++ = >2.5 relative activity over Rd2BB (SEQ ID NO: 10)) | +++ (+++ = >2.5 relative activity over Rd2BB (SEQ ID NO: 10))
9 | B9 | +++ (+++ = >2.5 relative activity over Rd2BB (SEQ ID NO: 10)) | +++ (+++ = >2.5 relative activity over Rd2BB (SEQ ID NO: 10)) | +++ (+++ = >2.5 relative activity over Rd2BB (SEQ ID NO: 10)) | ++ (++ = 1.5 to 2.5 relative activity over Rd2BB (SEQ ID NO: 10))
10 | B10 | + (+ = 0.5 to 1.5 relative activity over Rd2BB (SEQ ID NO: 10)) | + (+ = 0.5 to 1.5 relative activity over Rd2BB (SEQ ID NO: 10)) | ++ (++ = 1.5 to 2.5 relative activity over Rd2BB (SEQ ID NO: 10)) | + (+ = 0.5 to 1.5 relative activity over Rd2BB (SEQ ID NO: 10))
11 | B11 | +++ (+++ = >2.5 relative activity over Rd2BB (SEQ ID NO: 10)) | +++ (+++ = >2.5 relative activity over Rd2BB (SEQ ID NO: 10)) | +++ (+++ = >2.5 relative activity over Rd2BB (SEQ ID NO: 10)) | +++ (+++ = >2.5 relative activity over Rd2BB (SEQ ID NO: 10))
12 | B12 | + (+ = 0.5 to 1.5 relative activity over Rd2BB (SEQ ID NO: 10)) | + (+ = 0.5 to 1.5 relative activity over Rd2BB (SEQ ID NO: 10)) | + (+ = 0.5 to 1.5 relative activity over Rd2BB (SEQ ID NO: 10)) | + (+ = 0.5 to 1.5 relative activity over Rd2BB (SEQ ID NO: 10))
